The record followed here is the RNAGym collection of RNA variant scans (doi:10.1093/molbev/msab373).

Sequences and labels used below:
B1: Azoarcus group I ribozyme (parent)
chain: GUGCCUUGCGCCGGGAAACCACGCAAGGGAUGGUGUCAAAUUCGGCGAAACCUAAGCGCCCGCCCGGGCGUAUGGCAACGCCGAGCCAAGCUUCGGCGCCUGCGCCGAUGAAGGUGUAGAGACUAGACGGCACCCACCUAAGGCAAACGCUAUGGUGAAGGCAUAGUCCAGGGAGUGGCGAAAGUCACACAAACCGG

Variants of B1 are the subject of the data set. Briefly: reverse-splicing fitness (ratio to wild type); higher = more active; in vitro selection; Mg2+ level not given. In a few lines:
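An in vitro group I ribozyme library with randomized positions was T7-transcribed and gel-purified. In triplicate, 10 pmol RNA in EPPS pH 7.5 was reacted with 50 pmoles of a 30-nt RNA substrate for 1 h at 37 °C across several added MgCl2 levels (1–48 mM), then stopped with EDTA. Products were reverse transcribed from a substrate-complementary primer, PCR-amplified and sequenced (HiSeq 4000). Fitness is a variant's read proportion after selection over that before, normalised to wild type.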
For the variant C82U A145C C150A, the reverse-splicing fitness turned out to be 0.0351.

On to C82U A145C C150G, for which the reverse-splicing fitness worked out at 0.0813.

Take C82U A145C C150U: the reverse-splicing fitness is 0.172.

As to C82U A145C C150A C169A, the reverse-splicing fitness stood at 0.00751.

With C82U A145C C150A C169U, the reverse-splicing fitness is 0.00854.

As to C82U A145C C150A C169G, the reverse-splicing fitness is 0.00677.

As for C82U A145C C169G, the reverse-splicing fitness came to 0.00966.

Take C82U A145C C169U: the reverse-splicing fitness came to 0.0123.

Take C82U A145C C169A: the reverse-splicing fitness was 0.00714.

With C82U A120U C150U C169G U176A, the reverse-splicing fitness was 0.0036.

Turning to C82U A120U C150U C169G U176G, the reverse-splicing fitness amounted to 0.00155.

On to C82U A120U C150U C169G U176C, for which the reverse-splicing fitness came to 0.00284.

With C82U C150G U176G, the reverse-splicing fitness is 0.00652.

Regarding C82U C150G U176C, the reverse-splicing fitness is 0.0477.

As to C82U C150G U176A, the reverse-splicing fitness stood at 0.0283.

Consider C82U C150A U176G, for which the reverse-splicing fitness was 0.0218.

With C82U C150A U176A, the reverse-splicing fitness worked out at 0.0603.

In the case of C82U C150A U176C, the reverse-splicing fitness was 0.0779.

In the case of C82U A145G C150G C169U U176C, the reverse-splicing fitness came to 0.0132.

Turning to C82U A145G C150G C169U U176G, the reverse-splicing fitness turned out to be 0.00689.

For C82U A145G C150G C169U U176A, the reverse-splicing fitness was 0.0125.

As to C82U A145G U176G, the reverse-splicing fitness is 0.125.

Turning to C82U A145G U176A, the reverse-splicing fitness stood at 0.353.

For C82U A145G U176C, the reverse-splicing fitness was 0.44.

Consider C82U A120U A145U C169A U176G, for which the reverse-splicing fitness came to 0.00174.

With C82U A120U A145U C169A U176C, the reverse-splicing fitness worked out at 0.00166.

With C82U A120U A145U C169A U176A, the reverse-splicing fitness was determined as 0.00185.

For the variant C82U A145C C150U C169G U176G, the reverse-splicing fitness was found to be 0.0047.

For C82U A145C C150U C169G U176A, the reverse-splicing fitness turned out to be 0.0158.

Turning to C82U A145C C150U C169G U176C, the reverse-splicing fitness came to 0.00881.

Turning to C82U A145C C150A C169U U176G, the reverse-splicing fitness worked out at 0.00503.

For the variant C82U A145C C150A C169U U176A, the reverse-splicing fitness stood at 0.0103.

Regarding C82U A145C C150A C169U U176C, the reverse-splicing fitness came out at 0.00693.

For the variant C82U A145G C150G C169A U176C, the reverse-splicing fitness was 0.0125.

On to C82U A145G C150G C169A U176G, for which the reverse-splicing fitness turned out to be 0.00764.

With C82U A145G C150G C169A U176A, the reverse-splicing fitness amounted to 0.0146.

Consider C82U A120U C150G C169A U176G, for which the reverse-splicing fitness worked out at 0.00234.

On to C82U A120U C150G C169A U176A, for which the reverse-splicing fitness amounted to 0.00476.

For C82U A120U C150G C169A U176C, the reverse-splicing fitness was found to be 0.003.

Take C82U A145G C150A C169U U176A: the reverse-splicing fitness amounted to 0.0137.

Consider C82U A145G C150A C169U U176G, for which the reverse-splicing fitness came to 0.00508.

Regarding C82U A145G C150A C169U U176C, the reverse-splicing fitness worked out at 0.0152.

As for C82U A145C C150U C169A U176G, the reverse-splicing fitness was determined as 0.00518.

Consider C82U A145C C150U C169A U176A, for which the reverse-splicing fitness is 0.00827.

C82U A145C C150U C169A U176C: the reverse-splicing fitness came out at 0.00467.

Regarding C82U A145G C150U C169U U176C, the reverse-splicing fitness was found to be 0.0134.

C82U A145G C150U C169U U176G: the reverse-splicing fitness turned out to be 0.00493.

Turning to C82U A145G C150U C169U U176A, the reverse-splicing fitness is 0.0142.

For the variant C82U A145C C169U U176G, the reverse-splicing fitness came to 0.00457.

On to C82U A145C C169U U176C, for which the reverse-splicing fitness was determined as 0.00956.

For the variant C82U A145C C169U U176A, the reverse-splicing fitness stood at 0.0118.

C82U C150G: the reverse-splicing fitness was found to be 0.051.

C82U C150A: the reverse-splicing fitness came to 0.0698.

With C82U C150U, the reverse-splicing fitness is 0.369.

In the case of C82U A145C C150A C169A U176G, the reverse-splicing fitness came out at 0.0047.

On to C82U A145C C150A C169A U176A, for which the reverse-splicing fitness was 0.0088.

For C82U A145C C150A C169A U176C, the reverse-splicing fitness stood at 0.00505.

C82U A120U C150U C169A U176C: the reverse-splicing fitness came to 0.00192.

C82U A120U C150U C169A U176A: the reverse-splicing fitness is 0.00329.

C82U A120U C150U C169A U176G: the reverse-splicing fitness turned out to be 0.00208.

For C82U A120U A145U C169U U176A, the reverse-splicing fitness turned out to be 0.00227.

As to C82U A120U A145U C169U U176G, the reverse-splicing fitness came to 0.00161.

For C82U A120U A145U C169U U176C, the reverse-splicing fitness was found to be 0.00358.

C82U A145G: the reverse-splicing fitness was 0.63.

Consider C82U A145U, for which the reverse-splicing fitness came to 0.626.

Consider C82U A145C, for which the reverse-splicing fitness turned out to be 0.598.

In the case of C82U A120U C150G C169U U176C, the reverse-splicing fitness is 0.00349.

With C82U A120U C150G C169U U176A, the reverse-splicing fitness was determined as 0.00334.

Regarding C82U A120U C150G C169U U176G, the reverse-splicing fitness was 0.00244.

Consider C82U A120U C150A C169U U176A, for which the reverse-splicing fitness amounted to 0.00411.

Consider C82U A120U C150A C169U U176G, for which the reverse-splicing fitness amounted to 0.00201.

For the variant C82U A120U C150A C169U U176C, the reverse-splicing fitness came to 0.00331.

On to C82U A145U C150U, for which the reverse-splicing fitness turned out to be 0.438.

C82U A145U C150G: the reverse-splicing fitness was 0.0715.

Turning to C82U A145U C150A, the reverse-splicing fitness was determined as 0.0658.

With C82U C150A C169A U176C, the reverse-splicing fitness was found to be 0.0149.

As for C82U C150A C169A U176G, the reverse-splicing fitness was determined as 0.00489.

As to C82U C150A C169A U176A, the reverse-splicing fitness amounted to 0.019.

On to C82U A145C C150A C169G U176G, for which the reverse-splicing fitness worked out at 0.00485.

Regarding C82U A145C C150A C169G U176A, the reverse-splicing fitness is 0.0178.

For the variant C82U A145C C150A C169G U176C, the reverse-splicing fitness was determined as 0.00995.

Consider C82U A145U C150U U176G, for which the reverse-splicing fitness amounted to 0.0898.

For C82U A145U C150U U176A, the reverse-splicing fitness came out at 0.274.
